Measurements: US20240043528A1, “NANOBODY-OGA FUSIONS AND USES THEREOF” (President and Fellows of Harvard College, priority 2020, published 2024)

Biological target: T1, OGT (Homo sapiens, UniProt O15294)
T1 construct: host or cells: HEK 293T
T1 sequence (O15294 1-1046): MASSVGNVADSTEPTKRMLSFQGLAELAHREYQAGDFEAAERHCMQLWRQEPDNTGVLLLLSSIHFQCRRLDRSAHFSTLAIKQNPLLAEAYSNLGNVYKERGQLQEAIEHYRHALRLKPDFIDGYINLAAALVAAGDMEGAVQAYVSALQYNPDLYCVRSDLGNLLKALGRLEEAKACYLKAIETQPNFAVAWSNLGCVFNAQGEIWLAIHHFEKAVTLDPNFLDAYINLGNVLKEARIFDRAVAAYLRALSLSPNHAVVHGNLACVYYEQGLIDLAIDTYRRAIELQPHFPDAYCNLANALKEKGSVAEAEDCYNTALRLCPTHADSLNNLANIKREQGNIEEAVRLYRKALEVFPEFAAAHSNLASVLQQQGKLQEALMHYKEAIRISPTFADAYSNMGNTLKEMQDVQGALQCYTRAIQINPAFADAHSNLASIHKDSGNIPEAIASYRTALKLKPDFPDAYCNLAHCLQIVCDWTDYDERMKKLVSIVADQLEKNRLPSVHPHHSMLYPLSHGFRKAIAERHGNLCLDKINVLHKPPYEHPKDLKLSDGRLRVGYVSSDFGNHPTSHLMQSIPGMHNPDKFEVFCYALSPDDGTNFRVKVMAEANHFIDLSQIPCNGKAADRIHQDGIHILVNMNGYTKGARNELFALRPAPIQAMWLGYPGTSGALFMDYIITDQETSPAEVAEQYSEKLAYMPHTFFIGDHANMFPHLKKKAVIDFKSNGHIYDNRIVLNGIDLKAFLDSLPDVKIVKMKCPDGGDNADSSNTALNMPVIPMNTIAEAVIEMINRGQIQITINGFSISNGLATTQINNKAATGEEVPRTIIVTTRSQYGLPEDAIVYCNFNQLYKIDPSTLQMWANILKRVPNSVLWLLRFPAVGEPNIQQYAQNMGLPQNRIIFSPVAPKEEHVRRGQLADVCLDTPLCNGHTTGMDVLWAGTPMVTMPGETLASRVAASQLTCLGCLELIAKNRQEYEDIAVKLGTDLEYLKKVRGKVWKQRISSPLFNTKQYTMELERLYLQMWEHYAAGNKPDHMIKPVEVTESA
Experiment: Co-immunoprecipitation of OGA constructs with His-tagged OGT
Type: cell-based
Conditions: OGT-His co-transfected in HEK 293T cells
Experimental: For immunoprecipitation of proteins with His tag, cells were lysed in a buffer containing 50 mM Tris HCl pH 8.0, 150 mM NaCl, 1% Triton X-100, 5% glycerol, 1× protease inhibitor cocktail and 10 μM Thiamet-G on ice for 20 min. Cell lysates with equal amounts of protein were diluted with wash buffer (50 mM Tris HCl pH 8.0, 150 mM NaCl, 0.01% Tween-20) and incubated with pre-washed His-Tag Dynabeads (Invitrogen, 10103D) at room temperature for 20 min with mixing, following the manufacturer's instructions. After washed 4 times with wash buffer, the enriched proteins were eluted with elution buffer (300 mM Imidazole, 50 mM Tris HCl pH 8.0, 150 mM NaCl, 0.01% Tween-20) on a shaker for 10 min at room temperature.

- interaction with OGT: unable to interact with OGT
B1: split OGA (N2+C3): split OGA fragments N2 and C3 without nanobody (protein)
chain 1: MEQKLISEEDLAIAMVQKESQATLEERESELSSNPAASAGASLEPPAAPAPGEDNPAGAGGAAVAGAAGGARRFLCGVVEGFYGRPWVMEQRKELFRRLQKWELNTYLYAPKDDYKHRMFWREMYSVEEAEQLMTLISAAREYEIEFIYAISPGLDITFSNPKEVSTLKRKLDQVSQFGCRSFALLFDDIDHNMCAADKEVFSSFAHAQVSITNEIYQYLGEPETFLFCPTEYCGTFCYPNVSQSPYLRTVGEKLLPGIEVLWTGPKVVSKEIPVESIEEVSKIIKRAPVIWDNIHANDYDQKRLFLGPYKGRSTELIPRLKGVLTNPNCEFEANYVAIHTLATWYKSNMNGVRKDVVMTDSEDSTVSIQIKLENEGSDEDIETDVLYSPQMALKLALTEWLQEFGVPHQYSSR
chain 2: MAYPYDVPDYAAIAEKPLYTAEPVTLEDLQLLADLFYLPYEHGPKGAQMLREFQWLRANSSVVSVNCKGKDSEKIEEWRSRAAKFEEMCGLVMGMFTRLSNCANRTILYDMYSYVWDIKSIMSMVKSFVQWLGCRSHSSAQFLIGDQEPWAFRGGLAGEFQRLLPIDGANDLFFQPP
